Experimental data: patent US20170306033A1 (Amgen, published 2017)

T1: human PAC1 receptor (human, UniProt P41586 21-468)
T1 sequence: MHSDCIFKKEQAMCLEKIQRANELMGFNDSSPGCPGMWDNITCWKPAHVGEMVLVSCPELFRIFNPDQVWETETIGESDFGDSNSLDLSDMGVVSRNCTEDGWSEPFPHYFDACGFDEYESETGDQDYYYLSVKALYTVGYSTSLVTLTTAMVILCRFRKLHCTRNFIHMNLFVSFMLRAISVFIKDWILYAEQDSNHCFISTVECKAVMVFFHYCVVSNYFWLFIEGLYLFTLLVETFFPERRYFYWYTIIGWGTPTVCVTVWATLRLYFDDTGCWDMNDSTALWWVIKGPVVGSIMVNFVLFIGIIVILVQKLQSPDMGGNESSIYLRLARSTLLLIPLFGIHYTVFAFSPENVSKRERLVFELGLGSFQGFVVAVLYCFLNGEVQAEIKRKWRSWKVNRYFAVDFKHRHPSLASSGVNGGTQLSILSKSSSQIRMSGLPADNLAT


Key:
human PAC1 receptor = biological target: T1, human PAC1 receptor; test: cell-based or functional assay
human CGRP receptor = human CGRP receptor (human, UniProt Q16602 23-461; O60894 27-148); test: cell-based or functional assay
Chain of human CGRP receptor (Q16602 23-461 limits assumed, chain 1 of 2): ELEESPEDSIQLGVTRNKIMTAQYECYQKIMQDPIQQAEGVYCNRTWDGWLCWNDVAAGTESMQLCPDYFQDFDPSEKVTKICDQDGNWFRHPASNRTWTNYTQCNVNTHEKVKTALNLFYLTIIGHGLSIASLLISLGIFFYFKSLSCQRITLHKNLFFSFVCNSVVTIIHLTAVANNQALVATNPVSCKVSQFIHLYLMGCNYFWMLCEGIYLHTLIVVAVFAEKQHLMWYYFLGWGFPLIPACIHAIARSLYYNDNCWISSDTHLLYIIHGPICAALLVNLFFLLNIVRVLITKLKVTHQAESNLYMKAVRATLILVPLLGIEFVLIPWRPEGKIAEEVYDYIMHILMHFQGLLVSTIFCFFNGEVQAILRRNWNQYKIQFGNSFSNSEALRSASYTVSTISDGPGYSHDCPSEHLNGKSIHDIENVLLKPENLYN
Chain of human CGRP receptor (O60894 27-148 limits assumed, chain 2 of 2): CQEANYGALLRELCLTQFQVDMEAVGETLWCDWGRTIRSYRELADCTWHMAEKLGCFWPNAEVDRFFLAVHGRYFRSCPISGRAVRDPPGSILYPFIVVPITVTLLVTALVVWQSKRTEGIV

| Binder | Human PAC1 Receptor IC50 (human PAC1 receptor) | Human CGRP Receptor IC50 (human CGRP receptor) | Human PAC1 Receptor IC50 (nM), lot #1 (human PAC1 receptor) | Human PAC1 Receptor IC50 (nM), lot #2 (human PAC1 receptor) | Human CGRP Receptor IC50 (nM), lot #1 (human CGRP receptor) | Human CGRP Receptor IC50 (nM), lot #2 (human CGRP receptor) |
| --- | --- | --- | --- | --- | --- | --- |
| iPS:392513 (bispecific antibody, human IgG1, kappa, lambda, N297G) light: DIQLTQSPSFLSASVGDRVTITCRASQSIGRSLHWYQQKPGKAPKLLIKYASQSLSGVPSRFSGSGSGTEFTLTISSLQPEDFATYYCHQSSRLPFTFGPGTKVDIKRTVAAPSVFIFPPSDEQLKSGTASVVCLLNNFYPREAKVQWKVDNALQSGNSQESVTEQDSKDSTYSLESTLTLSKADYEKHKVYACEVTHQGLSSPVTKSFNRGEC heavy: not shown QVQLVESGGGVVQPGRSLRLSCAASGFTFSSFGMHWVRQAPGKGLEWVAVISFDGSIKYSVDSVKGRFTISRDNSKNTLFLQMNSLRAEDTAVYYCARDRLNYYDSSGYYHYKYYGMAVWGQGTTVTVSSGQPKANPTVTLFPPSSEELQANKATLVCLISDFYPGAVTVAWKADGSPVKAGVETTKPSKQSNNKYAAESYLSLTPEQWKSHRSYSCQVTHEGSTVEKTVAPTECS | 2.7 nM | 60.2 nM | – | – | – | – |
| iPS:392519 (bispecific antibody, human IgG1, kappa, lambda, N297G) light: DIQLTQSPSFLSASVGDRVTITCRASQSIGRSLHWYQQKPGKAPKLLIKYASQSLSGVPSRFSGSGSGTEFTLTISSLQPEDFATYYCHQSSRLPFTFGPGTKVDIKRTVAAPSVFIFPPSDEQLKSGTASVVCLLNNFYPREAKVQWKVDNALQSGNSQESVTEQDSKDSTYSLESTLTLSKADYEKHKVYACEVTHQGLSSPVTKSFNRGEC heavy: not shown QVQLVESGGGVVQPGRSLRLSCAASGFTFSSFGMHWVREAPGKGLEWVAVISFDGSIKYSVDSVKGRFTISRDNSKNTLFLQMNSLRAEDTAVYYCARDRLNYYESSGYYHYKYYGMAVWGQGTTVTVSSGQPKANPTVTLFPPSSEELQANKATLVCLISDFYPGAVTVAWKADGSPVKAGVETTKPSKQSNNKYAAESYLSLTPEQWKSHRSYSCQVTHEGSTVEKTVAPTECS | 6.87 nM | 81.3 nM | – | – | – | – |
| iPS:392521 (bispecific antibody, human IgG1, kappa, lambda, N297G) light: DIQLTQSPSFLSASVGDRVTITCRASQSIGRSLHWYQQKPGKAPKLLIKYASQSLSGVPSRFSGSGSGTEFTLTISSLQPEDFATYYCHQSSRLPFTFGPGTKVDIKRTVAAPSVFIFPPSDEQLKSGTASVVCLLNNFYPREAKVQWKVDNALQSGNSQESVTEQDSKDSTYSLESTLTLSKADYEKHKVYACEVTHQGLSSPVTKSFNRGEC heavy: not shown QVQLVESGGGVVQPGRSLRLSCAASGFTFSSFGMHWVREAPGKGLEWVAVISFDGSIKYSVDSVKGRFTISRDNSKNTLFLQMNSLRAEDTAVYYCARDRLNYYESSGYYHYKYYGMAVWGQGTTVTVSSASTKGPSVFPLAPSSKSTSGGTAALGCLVKDYFPEPVTVSWNSGALTSGVHTFPAVLQSSGLYSLESVVTVPSSSLGTQTYICNVNHKPSNTKVDKKV | 6.88 nM | 18.8 nM | – | – | – | – |
| iPS:392522 (bispecific antibody, human IgG1, kappa, lambda, N297G) light: DIQLTQSPSFLSASVGDRVTITCRASQSIGRSLHWYQEKPGKAPKLLIKYASQSLSGVPSRFSGSGSGTEFTLTISSLQPEDFATYYCHQSSRLPFTFGPGTKVDIKRTVAAPSVFIFPPSDEQLKSGTASVVCLLNNFYPREAKVQWKVDNALQSGNSQESVTEQDSKDSTYSLESTLTLSKADYEKHKVYACEVTHQGLSSPVTKSFNRGEC heavy: not shown QVQLVESGGGVVQPGRSLRLSCAASGFTFSSFGMHWVRQAPGKGLEWVAVISFDGSIKYSVDSVKGRFTISRDNSKNTLFLQMNSLRAEDTAVYYCARDRLNYYESSGYYHYKYYGMAVWGQGTTVTVSSASTKGPSVFPLAPSSKSTSGGTAALGCLVKDYFPEPVTVSWNSGALTSGVHTFPAVLQSSGLYSLESVVTVPSSSLGTQTYICNVNHKPSNTKVDKKV | – | – | 9.32 nM | 3.29 nM | 8.8 nM | 7.58 nM |
| iPS:392516 (bispecific antibody, human IgG1, kappa, lambda, N297G) light: DIQLTQSPSFLSASVGDRVTITCRASQSIGRSLHWYQQKPGKAPKLLIKYASQSLSGVPSRFSGSGSGTEFTLTISSLQPEDFATYYCHQSSRLPFTFGPGTKVDIKRTVAAPSVFIFPPSDEQLKSGTASVVCLLNNFYPREAKVQWKVDNALQSGNSQESVTEQDSKDSTYSLESTLTLSKADYEKHKVYACEVTHQGLSSPVTKSFNRGEC heavy: not shown QVQLVESGGGVVQPGRSLRLSCAASGFTFSSFGMHWVREAPGKGLEWVAVISFDGSIKYSVDSVKGRFTISRDNSKNTLFLQMNSLRAEDTAVYYCARDRLNYYDSSGYYHYKYYGMAVWGQGTTVTVSSASTKGPSVFPLAPSSKSTSGGTAALGCLVKDYFPEPVTVSWNSGALTSGVHTFPAVLQSSGLYSLESVVTVPSSSLGTQTYICNVNHKPSNTKVDKKV | 9.3 nM | 27.9 nM | – | – | – | – |
| iPS:392517 (bispecific antibody, human IgG1, kappa, lambda, N297G) light: DIQLTQSPSFLSASVGDRVTITCRASQSIGRSLHWYQEKPGKAPKLLIKYASQSLSGVPSRFSGSGSGTEFTLTISSLQPEDFATYYCHQSSRLPFTFGPGTKVDIKRTVAAPSVFIFPPSDEQLKSGTASVVCLLNNFYPREAKVQWKVDNALQSGNSQESVTEQDSKDSTYSLESTLTLSKADYEKHKVYACEVTHQGLSSPVTKSFNRGEC heavy: not shown QVQLVESGGGVVQPGRSLRLSCAASGFTFSSFGMHWVRQAPGKGLEWVAVISFDGSIKYSVDSVKGRFTISRDNSKNTLFLQMNSLRAEDTAVYYCARDRLNYYDSSGYYHYKYYGMAVWGQGTTVTVSSASTKGPSVFPLAPSSKSTSGGTAALGCLVKDYFPEPVTVSWNSGALTSGVHTFPAVLQSSGLYSLESVVTVPSSSLGTQTYICNVNHKPSNTKVDKKV | – | – | 2.48 nM | 7.75 nM | 10.9 nM | 11.5 nM |
| iPS:392514 (bispecific antibody, human IgG1, kappa, lambda, N297G) light: DIQLTQSPSFLSASVGDRVTITCRASQSIGRSLHWYQQKPGKAPKLLIKYASQSLSGVPSRFSGSGSGTEFTLTISSLQPEDFATYYCHQSSRLPFTFGPGTKVDIKRTVAAPSVFIFPPSDEQLKSGTASVVCLLNNFYPREAKVQWKVDNALQSGNSQESVTEQDSKDSTYSLESTLTLSKADYEKHKVYACEVTHQGLSSPVTKSFNRGEC heavy: not shown QVQLVESGGGVVQPGRSLRLSCAASGFTFSSFGMHWVREAPGKGLEWVAVISFDGSIKYSVDSVKGRFTISRDNSKNTLFLQMNSLRAEDTAVYYCARDRLNYYDSSGYYHYKYYGMAVWGQGTTVTVSSGQPKANPTVTLFPPSSEELQANKATLVCLISDFYPGAVTVAWKADGSPVKAGVETTKPSKQSNNKYAAESYLSLTPEQWKSHRSYSCQVTHEGSTVEKTVAPTECS | 4.69 nM | 54 nM | – | – | – | – |
| iPS:392518 (bispecific antibody, human IgG1, kappa, lambda, N297G) light: DIQLTQSPSFLSASVGDRVTITCRASQSIGRSLHWYQEKPGKAPKLLIKYASQSLSGVPSRFSGSGSGTEFTLTISSLQPEDFATYYCHQSSRLPFTFGPGTKVDIKRTVAAPSVFIFPPSDEQLKSGTASVVCLLNNFYPREAKVQWKVDNALQSGNSQESVTEQDSKDSTYSLESTLTLSKADYEKHKVYACEVTHQGLSSPVTKSFNRGEC heavy: not shown QVQLVESGGGVVQPGRSLRLSCAASGFTFSSFGMHWVREAPGKGLEWVAVISFDGSIKYSVDSVKGRFTISRDNSKNTLFLQMNSLRAEDTAVYYCARDRLNYYDSSGYYHYKYYGMAVWGQGTTVTVSSASTKGPSVFPLAPSSKSTSGGTAALGCLVKDYFPEPVTVSWNSGALTSGVHTFPAVLQSSGLYSLESVVTVPSSSLGTQTYICNVNHKPSNTKVDKKV | 3.4 nM | 17.8 nM | – | – | – | – |
| iPS:392523 (bispecific antibody, human IgG1, kappa, lambda, N297G) light: DIQLTQSPSFLSASVGDRVTITCRASQSIGRSLHWYQEKPGKAPKLLIKYASQSLSGVPSRFSGSGSGTEFTLTISSLQPEDFATYYCHQSSRLPFTFGPGTKVDIKRTVAAPSVFIFPPSDEQLKSGTASVVCLLNNFYPREAKVQWKVDNALQSGNSQESVTEQDSKDSTYSLESTLTLSKADYEKHKVYACEVTHQGLSSPVTKSFNRGEC heavy: not shown QVQLVESGGGVVQPGRSLRLSCAASGFTFSSFGMHWVREAPGKGLEWVAVISFDGSIKYSVDSVKGRFTISRDNSKNTLFLQMNSLRAEDTAVYYCARDRLNYYESSGYYHYKYYGMAVWGQGTTVTVSSASTKGPSVFPLAPSSKSTSGGTAALGCLVKDYFPEPVTVSWNSGALTSGVHTFPAVLQSSGLYSLESVVTVPSSSLGTQTYICNVNHKPSNTKVDKKV | 5.03 nM | 20.4 nM | – | – | – | – |
| iPS:392520 (bispecific antibody, human IgG1, kappa, lambda, N297G) light: DIQLTQSPSFLSASVGDRVTITCRASQSIGRSLHWYQQKPGKAPKLLIKYASQSLSGVPSRFSGSGSGTEFTLTISSLQPEDFATYYCHQSSRLPFTFGPGTKVDIKRTVAAPSVFIFPPSDEQLKSGTASVVCLLNNFYPREAKVQWKVDNALQSGNSQESVTEQDSKDSTYSLESTLTLSKADYEKHKVYACEVTHQGLSSPVTKSFNRGEC heavy: not shown QVQLVESGGGVVQPGRSLRLSCAASGFTFSSFGMHWVRQAPGKGLEWVAVISFDGSIKYSVDSVKGRFTISRDNSKNTLFLQMNSLRAEDTAVYYCARDRLNYYESSGYYHYKYYGMAVWGQGTTVTVSSASTKGPSVFPLAPSSKSTSGGTAALGCLVKDYFPEPVTVSWNSGALTSGVHTFPAVLQSSGLYSLESVVTVPSSSLGTQTYICNVNHKPSNTKVDKKV | 6.28 nM | 10.5 nM | – | – | – | – |
| iPS:392515 (bispecific antibody, human IgG1, kappa, lambda, N297G) light: DIQLTQSPSFLSASVGDRVTITCRASQSIGRSLHWYQQKPGKAPKLLIKYASQSLSGVPSRFSGSGSGTEFTLTISSLQPEDFATYYCHQSSRLPFTFGPGTKVDIKRTVAAPSVFIFPPSDEQLKSGTASVVCLLNNFYPREAKVQWKVDNALQSGNSQESVTEQDSKDSTYSLESTLTLSKADYEKHKVYACEVTHQGLSSPVTKSFNRGEC heavy: not shown QVQLVESGGGVVQPGRSLRLSCAASGFTFSSFGMHWVRQAPGKGLEWVAVISFDGSIKYSVDSVKGRFTISRDNSKNTLFLQMNSLRAEDTAVYYCARDRLNYYDSSGYYHYKYYGMAVWGQGTTVTVSSASTKGPSVFPLAPSSKSTSGGTAALGCLVKDYFPEPVTVSWNSGALTSGVHTFPAVLQSSGLYSLESVVTVPSSSLGTQTYICNVNHKPSNTKVDKKV | 2.66 nM | 12.9 nM | – | – | – | – |
